One molecule from paper doi:10.1101/613059 can be followed below.

In the series the target is T1, Elav (Drosophila melanogaster (w1118), UniProt P16914 1-483).
T1 sequence: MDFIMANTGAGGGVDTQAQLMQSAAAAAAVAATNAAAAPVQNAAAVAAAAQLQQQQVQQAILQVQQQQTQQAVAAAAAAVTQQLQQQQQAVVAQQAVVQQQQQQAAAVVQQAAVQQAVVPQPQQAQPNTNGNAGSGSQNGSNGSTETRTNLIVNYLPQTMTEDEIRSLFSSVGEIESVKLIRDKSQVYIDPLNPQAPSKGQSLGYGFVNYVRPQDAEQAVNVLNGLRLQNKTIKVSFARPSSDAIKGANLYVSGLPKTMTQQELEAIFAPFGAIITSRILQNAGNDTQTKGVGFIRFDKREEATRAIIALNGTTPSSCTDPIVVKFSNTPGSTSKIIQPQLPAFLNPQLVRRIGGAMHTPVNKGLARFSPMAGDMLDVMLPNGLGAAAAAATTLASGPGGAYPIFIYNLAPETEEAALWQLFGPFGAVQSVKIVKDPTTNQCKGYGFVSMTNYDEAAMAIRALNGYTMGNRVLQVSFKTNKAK
The experiment in a line: EMSA.

Take UGUGUAAGUGAGUACGGUCGCUGUGGUGUGAUGAUGGGUGUGG (ssRNA, U to G substitutions disrupting U-rich stretches) [Dscam1 EBS mutant probe]: the binding result is “no binding”.
